Reference: US12077763B2, “RNA-based control of powdery mildew” (Greenlight Biosciences, Inc., priority 2021, dated 2024)

B1: GS3916 (nucleic acid)
sense: UUACAAUCCAUGCACCAUCCAUUAAGCGAAAAUAAACCAUCACUGUUGAGAAAGAAGUUAAACGUGAUUUGAGCUGUUAUAAGAGUUGAGUUUAACACAGUAUUUUGAAUUUGUUCUAAUCCUGUACUUGCUAUUUUUGAAUCUUCGAGUGAUGGUGCAAGAUCAACGUUGAAGUGUAUGAUAGAAUCUGGUGCAGUUUCGGUACUUAAGUACAGAUAUGUUGCAAUGCCAAAACUAUCACUAGCACCACGCAUAGCAAAGAAAAUAUCGGGAUUUGUAUCAUCACUGGCGAAAAUUUCCUGUCCAUCAGCAAGAAUAACAUCCAUACCAACGAUGUGAUCA
antisense: UGAUCACAUCGUUGGUAUGGAUGUUAUUCUUGCUGAUGGACAGGAAAUUUUCGCCAGUGAUGAUACAAAUCCCGAUAUUUUCUUUGCUAUGCGUGGUGCUAGUGAUAGUUUUGGCAUUGCAACAUAUCUGUACUUAAGUACCGAAACUGCACCAGAUUCUAUCAUACACUUCAACGUUGAUCUUGCACCAUCACUCGAAGAUUCAAAAAUAGCAAGUACAGGAUUAGAACAAAUUCAAAAUACUGUGUUAAACUCAACUCUUAUAACAGCUCAAAUCACGUUUAACUUCUUUCUCAACAGUGAUGGUUUAUUUUCGCUUAAUGGAUGGUGCAUGGAUUGUAA
B2: GS3919 (nucleic acid)
sense: AUUGCGCCAAAAUGUGAGGUAAGGAUUACUAACUUGCUGAGCUUGAAGAACUCAUCAACACCAGUAUCUUUAGCUGGUAAACAAGUUAAGCAAAUUCAAAGCAACUUACCAUCGACAAGUAAACAACUUGGAAUAUUUGCAAAAGAAAACAUCUUACCGGGCGAAUCAAUCCUUAAAGAGCUGUCAUAUCUCACUGUUAAUAAUAGACUCAAAGGCCCUCUAUGUGAUGCUUGUAGUGCUGAAAUUCCUUCUCUAUAUGAAACUGAAAGUACAGCAAUGAGCUGUCUCGAGUGUGAUGAAAUCUCAUUCUGUAGUGAUGAAUGCAAACGUGGAGCUGAGCUCGAAUAUCAUCCAGCAGUAUGUGGUAAAGAUGUUGAGACAAUUGGCAAGGACUGG
antisense: CCAGUCCUUGCCAAUUGUCUCAACAUCUUUACCACAUACUGCUGGAUGAUAUUCGAGCUCAGCUCCACGUUUGCAUUCAUCACUACAGAAUGAGAUUUCAUCACACUCGAGACAGCUCAUUGCUGUACUUUCAGUUUCAUAUAGAGAAGGAAUUUCAGCACUACAAGCAUCACAUAGAGGGCCUUUGAGUCUAUUAUUAACAGUGAGAUAUGACAGCUCUUUAAGGAUUGAUUCGCCCGGUAAGAUGUUUUCUUUUGCAAAUAUUCCAAGUUGUUUACUUGUCGAUGGUAAGUUGCUUUGAAUUUGCUUAACUUGUUUACCAGCUAAAGAUACUGGUGUUGAUGAGUUCUUCAAGCUCAGCAAGUUAGUAAUCCUUACCUCACAUUUUGGCGCAAU
B3: GS1814: dsRNA trigger SEQ ID NO 161; gene target Importin subunit beta-3 (nucleic acid)
DNA: TTATTGGTGGTAGAATGTTCAAAACCTCTGATATAAGTTCATAGTATTTTTGCTTGGATTTTTTGTTGAGACTCCTGAAGAATGAAGCGAAAGCTTCCATAGCGGCCAGTCGGACTGTCACGTCATCATCCTTAAATCCCTTGGTAAAAGCAGAAAGAACAGTATCTTCATGCTGCTTTTCGATTATTCTAGGAGTTGTTGAGAAGATTCTATAGGCAATCTCACGTTGGCCCATCACTTGCGACATACTGAGTGTAAAGAGAACACCTAGAATTTCGGGCCATTGCAACTTATCATCGGAGTACTGCCTAGCGACTTCTGCGACTGCATCACCTATCTTATTTCTTGTAGACGTTTCGGTTTCAGAGCTAAGGGCTTCAAGAAGTTTTTGTCTGATAATATGTCCTTGTTCTGTCGGCAAAGAGATAAATGTTTCCACTGACTGATTATTTTGTAATTTTCGAGTCTTTGAAGCTATCCGTCTGAAGATGACTGCAGCAAAAGAGCGTTTCGCAGGATCGTTTGAGCCCTGAATTTGTTCCACCAGGCCAATCAAGAGCATCTCTGGTTTAAGCAACGTCCAATTATTCGTTAAAT
B4: GS3627 (nucleic acid)
sense: CUGUUUGGUCUCCUCUGCUUUGGACUAGUUUCAACUGCUCCAGCACCAAACUCACCUUGGCAUCUACGAAGCCGACAGGAAGGUGGUGGCUACUAUGGCCAACCAUCGAAUGGUGAUGGAAGUGUGUAUCCACCUUCAUCUGGUACAGGUGGCUUUCUAUCGCCAACUGCUACGAGCGGUUAUCCGUCUGCAACUGGAACUGGCGGCUAUUCAUCUCCAUCGGGCACCGGUGGCUACCCGUCUGCAACAGGUACAGGUGGUUACGCAUCGCCAACAGGGACCAGUUACCCUACACCUAC
antisense: GUAGGUGUAGGGUAACUGGUCCCUGUUGGCGAUGCGUAACCACCUGUACCUGUUGCAGACGGGUAGCCACCGGUGCCCGAUGGAGAUGAAUAGCCGCCAGUUCCAGUUGCAGACGGAUAACCGCUCGUAGCAGUUGGCGAUAGAAAGCCACCUGUACCAGAUGAAGGUGGAUACACACUUCCAUCACCAUUCGAUGGUUGGCCAUAGUAGCCACCACCUUCCUGUCGGCUUCGUAGAUGCCAAGGUGAGUUUGGUGCUGGAGCAGUUGAAACUAGUCCAAAGCAGAGGAGACCAAACAG
B5: GS3673 (nucleic acid)
sense: AACUACUAACCUCGCCGCCCUAUAUAAGAAGAUGGGAACGCAAAAUCGUGUCAAUUUGAAAGAAAAGUUAAAAGGAAUGCGAAUCCAAAUCACACAUCUGCCCCCAAAGAUUAAUAAAACAACCGGAAAGGUUAUACCAAGGAUUAAAACCAUUCAAGGCCUUGCAAAUAUUAAUGAUGGUGCCAAAGAGGAGCAUCGACCAGAGGUUGCUGGAUAUGGUGCUGGUCCUCAAAAGGUCAAGUUUUGGGUAUCUGAAGAUACUGGCACUUCUAAAACCAGCCAAAAAAACCCCUUGCCAUCUAACACUUACAUCAGUGUAUAUGAUUACUUCAAAAAAAGAUACCCAAAGAUUGAAUUGGAUCCAAUAAAUCCUGUAGUUAAUGUUGGAAACAGUGAA
antisense: UUCACUGUUUCCAACAUUAACUACAGGAUUUAUUGGAUCCAAUUCAAUCUUUGGGUAUCUUUUUUUGAAGUAAUCAUAUACACUGAUGUAAGUGUUAGAUGGCAAGGGGUUUUUUUGGCUGGUUUUAGAAGUGCCAGUAUCUUCAGAUACCCAAAACUUGACCUUUUGAGGACCAGCACCAUAUCCAGCAACCUCUGGUCGAUGCUCCUCUUUGGCACCAUCAUUAAUAUUUGCAAGGCCUUGAAUGGUUUUAAUCCUUGGUAUAACCUUUCCGGUUGUUUUAUUAAUCUUUGGGGGCAGAUGUGUGAUUUGGAUUCGCAUUCCUUUUAACUUUUCUUUCAAAUUGACACGAUUUUGCGUUCCCAUCUUCUUAUAUAGGGCGGCGAGGUUAGUAGUU
B6: GS3628 (nucleic acid)
sense: UAGUUUCAACUGCUCCAGCACCAAACUCACCUUGGCAUCUACGAAGCCGACAGGAAGGUGGUGGCUACUAUGGCCAACCAUCGAAUGGUGAUGGAAGUGUGUAUCCACCUUCAUCUGGUACAGGUGGCUUUCUAUCGCCAACUGCUACGAGCGGUUAUCCGUCUGCAACUGGAACUGGCGGCUAUUCAUCUCCAUCGGGCACCGGUGGCUACCCGUCUGCAACAGGUACAGGUGGUUACGCAUCGCCAA
antisense: UUGGCGAUGCGUAACCACCUGUACCUGUUGCAGACGGGUAGCCACCGGUGCCCGAUGGAGAUGAAUAGCCGCCAGUUCCAGUUGCAGACGGAUAACCGCUCGUAGCAGUUGGCGAUAGAAAGCCACCUGUACCAGAUGAAGGUGGAUACACACUUCCAUCACCAUUCGAUGGUUGGCCAUAGUAGCCACCACCUUCCUGUCGGCUUCGUAGAUGCCAAGGUGAGUUUGGUGCUGGAGCAGUUGAAACUA
B7: GS3917 (nucleic acid)
sense: CCAGGCUAAAUCUGUGCUCCAAACACAGUCAGUAAUACAGACUUUAAUUGCUGAGUGUUUAUCUUUGGGGAAAACAAAAAUGAUUAUUGAUCUCUCCUCGAAUAGUGGAGGUAAUUUGGUCGUUGGUUAUGACACAUUCCGACAAUUUUUCCCUACCAUUGAACAGCCAGGUUAUUCACGAUUUCGAUUACACGAGGCGCUAAAAAUUAUUACGAAACAGAUCUCGAAAAUCGCAUCGAAUUUCUCUUUUACAAGUACAAACCCCACUGAUUAUGAUUAUUACCAAACUCCGUUUAAUUAUAGAUUCGAUCUAAAUGAAACCAAUGAAAAAUUUCUUAGCUACGAGGAUAAAUUCAGUCCAAGAAAAUUUAAUGGUGAUGAAUUCACUAGCAAUAUGA
antisense: UCAUAUUGCUAGUGAAUUCAUCACCAUUAAAUUUUCUUGGACUGAAUUUAUCCUCGUAGCUAAGAAAUUUUUCAUUGGUUUCAUUUAGAUCGAAUCUAUAAUUAAACGGAGUUUGGUAAUAAUCAUAAUCAGUGGGGUUUGUACUUGUAAAAGAGAAAUUCGAUGCGAUUUUCGAGAUCUGUUUCGUAAUAAUUUUUAGCGCCUCGUGUAAUCGAAAUCGUGAAUAACCUGGCUGUUCAAUGGUAGGGAAAAAUUGUCGGAAUGUGUCAUAACCAACGACCAAAUUACCUCCACUAUUCGAGGAGAGAUCAAUAAUCAUUUUUGUUUUCCCCAAAGAUAAACACUCAGCAAUUAAAGUCUGUAUUACUGACUGUGUUUGGAGCACAGAUUUAGCCUGG
B8: GS3672 (nucleic acid)
sense: UUCCUGGACAACCAGUAAAGAAAAAGUUGGGACCAAAUCAAACACAAGAAAUGAUAAAGUUUGCAUGUCGAACACCUGCCCAAAAUGCUACCUCAGUUGUUCAAGAUGGAAGACAUGUUUUGAGCCUGAACUCUAGCAACCCUGUUCUAUCUGAAUUUGGCCUUCAAGUAGGUCAGUCUUUGAUAUCAGUAAAUGCUCGAGUACUACAACCACCGUCUGUGAGAUAUGGAGGAUCUGGAAGUCUAUCACCGAGAAAUGGUAGUUGGAAUAUGAUUAACGUGAGAUUUCAUACACCCGCCAAAAUCGGACCAUGGACUUGUAUUAUGUUUCCCACCCAAGGAAGAAAUGACAUUGAUGUUGGUAAUAUGAGAUCACAUGUCACUGCUUUCCAAGCACA
antisense: UGUGCUUGGAAAGCAGUGACAUGUGAUCUCAUAUUACCAACAUCAAUGUCAUUUCUUCCUUGGGUGGGAAACAUAAUACAAGUCCAUGGUCCGAUUUUGGCGGGUGUAUGAAAUCUCACGUUAAUCAUAUUCCAACUACCAUUUCUCGGUGAUAGACUUCCAGAUCCUCCAUAUCUCACAGACGGUGGUUGUAGUACUCGAGCAUUUACUGAUAUCAAAGACUGACCUACUUGAAGGCCAAAUUCAGAUAGAACAGGGUUGCUAGAGUUCAGGCUCAAAACAUGUCUUCCAUCUUGAACAACUGAGGUAGCAUUUUGGGCAGGUGUUCGACAUGCAAACUUUAUCAUUUCUUGUGUUUGAUUUGGUCCCAACUUUUUCUUUACUGGUUGUCCAGGAA

System: E. necator
Assay: Leaf disc assay, dry inoculum (settling tower), decrease in disease severity / hyphal growth (Example 2)
Details: decrease in disease severity (hyphal growth) relative to untreated control, value ± SE; for % decrease =/− SE TP1: time point 1 (untreated control hyphal growth ≥50%); for % decrease =/− SE TP2: time point 2

Row | Molecule | % decrease =/− SE TP1 [%] | % decrease =/− SE TP2 [%]
1 | B1 | 11 ± 9 | –
2 | B2 | 23 ± 8 | 16 ± 9
3 | B3 | 8 ± 4 | –
4 | B4 | 30 ± 3 | 29 ± 6
5 | B5 | 34 ± 4 | 29 ± 6
6 | B6 | 12 ± 2 | 7 ± 5
7 | B7 | – | 29 ± 12
8 | B8 | 34 ± 4 | 26 ± 7
